pKd: −log10 of the molar value.
Target: Human plasminogen (PLG) protein (human) (UniProt P00747)
Assay: SPR; BIAcore system; PLG and EV-A71 6356 viral particles; the methods tell one set-up (PLG coated, virus diluted) for EnSpire or BIAcore

How did the pKd turn out when “Enterovirus A71 (EV-A71) viral particles, strain 6356 (human strain, C2 genotype) (complex)” was run?
Its pKd is 8.71.

What about the koff of the same substance?
Its koff is 5.63e-05 s⁻¹.

And the kon?
Its kon is 28800 M⁻¹ s⁻¹.

Source: paper PMC12210968
